Tests used:
[1] = molecular target: HLA-A*24:02; experiment: IEDB peptide-MHC binding, purified MHC/competitive/radioactivity; filed as Kd, often an IC50 or EC50 that approximates it; ≥ and ≤ were set here for values at or beyond the usual limits of such assays
[2] = molecular target: HLA-A*26:01; experiment: as above
[3] = molecular target: HLA-A*30:02; experiment: as above
[4] = molecular target: HLA-A*29:02; experiment: as above
[5] = molecular target: HLA-A*01:01; experiment: as above
[6] = molecular target: HLA-A*23:01; experiment: as above
[7] = molecular target: HLA-A*02:01; experiment: IEDB peptide-MHC binding, purified MHC/direct/fluorescence; filed as Kd, often an IC50 or EC50 that approximates it; ≥ and ≤ were set here for values at or beyond the usual limits of such assays; settings: source organism: Marburg virus - Musoke, Kenya, 1980
[8] = molecular target: HLA-A*69:01; experiment: as above; settings: source organism: Marburg virus - Musoke, Kenya, 1980
[9] = molecular target: HLA-A*02:01; experiment: IEDB peptide-MHC binding, purified MHC/competitive/fluorescence; ≥ and ≤ were set here for values at or beyond the usual limits of such assays
[10] = molecular target: HLA-B*58:01; experiment: IEDB peptide-MHC binding, purified MHC/direct/fluorescence; filed as Kd, often an IC50 or EC50 that approximates it; ≥ and ≤ were set here for values at or beyond the usual limits of such assays; settings: source organism: Mycobacterium tuberculosis
[11] = molecular target: HLA-B*15:01; experiment: as above; settings: source organism: Salmonella enterica subsp. enterica serovar Typhimurium
[12] = source organism: Mammarenavirus guanaritoense
[13] = source organism: SARS coronavirus Tor2
[14] = source organism: Dengue virus 4 Philippines/H241/1956
[15] = source organism: Zaire ebolavirus
[16] = source organism: Dengue virus 3 Martinique/1243/1999
[17] = source organism: Triticum aestivum
[18] = source organism: Mammarenavirus brazilense
[19] = source organism: Mammarenavirus juninense
[20] = source organism: Dengue virus 2 Jamaica/1409/1983
[21] = source organism: Mammarenavirus whitewaterense
[22] = source organism: Dengue virus 1 Brazil/97-11/1997

LKILVLSIL
Kd [1, 12]: 1.83 µM
Kd [2, 12]: ≥ 32.6 µM
Kd [3, 12]: 11 µM
Kd [4, 12]: 15.1 µM
Kd [5, 12]: 0.272 µM
Kd [6, 12]: 11.1 µM

LSNFGAPSY
Kd [1, 13]: ≥ 77.6 µM
Kd [2, 13]: 4.58 µM
Kd [3, 13]: 0.00177 µM
Kd [4, 13]: 0.0139 µM
Kd [5, 13]: 0.0812 µM
Kd [6, 13]: ≥ 77.8 µM

LTKGTLEPEY
Kd [1, 13]: ≥ 70.3 µM
Kd [2, 13]: 1.99 µM
Kd [3, 13]: 0.536 µM
Kd [4, 13]: 2.05 µM
Kd [5, 13]: 3.2 µM
Kd [6, 13]: ≥ 70 µM

LTQDLFLPFY
Kd [1, 13]: 10.5 µM
Kd [2, 13]: 0.481 µM
Kd [3, 13]: 0.00226 µM
Kd [4, 13]: 0.0535 µM
Kd [5, 13]: 0.00838 µM
Kd [6, 13]: 18 µM

MLAKYDHLV
Kd [7]: 0.027 µM
Kd [8]: 0.104 µM

MMSAPPAEY
Kd [1, 13]: 12.7 µM
Kd [2, 13]: 2.24 µM
Kd [3, 13]: 0.000112 µM
Kd [4, 13]: 0.00123 µM
Kd [5, 13]: 0.182 µM
Kd [6, 13]: ≥ 51.1 µM

MSYTMCSGKF
Kd [2, 14]: 1.51 µM
Kd [3, 14]: 0.0818 µM
Kd [5, 14]: 7.72 µM

NLTIAWPRM
IC50 ([9]; source organism: Human alphaherpesvirus 1 strain 17): ≥ 50 µM

NMVYMPASW
Kd [1, 13]: 4.02 µM
Kd [2, 13]: ≥ 77.9 µM
Kd [3, 13]: ≥ 96.8 µM
Kd [4, 13]: ≥ 25.1 µM
Kd [5, 13]: ≥ 78.1 µM
Kd [6, 13]: 0.706 µM

PRCRYVHKV
IC50 [9, 15]: ≥ 3070 µM

PYMPTVIEHL
Kd [1, 16]: 0.0462 µM
Kd [6, 16]: 0.0434 µM

QFEEIRNLAL
Kd [1, 17]: 6.85 µM
Kd [2, 17]: ≥ 69.7 µM
Kd [3, 17]: 7.39 µM
Kd [4, 17]: 3.88 µM
Kd [5, 17]: ≥ 70.4 µM
Kd [6, 17]: ≥ 21.7 µM

QFLFQLNDT
IC50 ([9]; source organism: Sudan ebolavirus): 10.8 µM

QKAALSEGVY
Kd ([3]; source organism: Dengue virus 4 Singapore/8976/1995): 0.139 µM

QYGSFCTQL
Kd [1, 13]: ≥ 107 µM
Kd [2, 13]: ≥ 77.9 µM
Kd [3, 13]: ≥ 93.8 µM
Kd [4, 13]: ≥ 78.9 µM
Kd [5, 13]: ≥ 78.1 µM
Kd [6, 13]: ≥ 75.4 µM

QYSQPQQPI
Kd [1, 17]: 2.62 µM
Kd [2, 17]: ≥ 77.9 µM
Kd [3, 17]: 0.0933 µM
Kd [4, 17]: 0.407 µM
Kd [5, 17]: ≥ 56.4 µM
Kd [6, 17]: 16.1 µM

RLDDDGNFQL
IC50 ([9]; source organism: West Nile virus NY-99): 0.847 µM

RSTYRLDGW
Kd [10]: 0.0453 µM

SFYCDPKRYF
Kd [1, 18]: 0.443 µM
Kd [4, 18]: 0.0294 µM
Kd [6, 18]: 0.0846 µM

SGKDTPGGY
Kd [1, 19]: ≥ 77.5 µM
Kd [2, 19]: ≥ 77.9 µM
Kd [3, 19]: 0.00285 µM
Kd [4, 19]: ≥ 69.7 µM
Kd [5, 19]: 13.6 µM
Kd [6, 19]: ≥ 77.7 µM

SGLLIVKTV
IC50 [9, 15]: 2.29 µM

SKKEGGAMY
Kd [3, 20]: ≥ 76.9 µM

SWILRNPGF
Kd [1, 14]: 0.369 µM
Kd [6, 14]: 0.496 µM

TKHPSLNII
Kd [1, 21]: ≥ 52.1 µM
Kd [2, 21]: ≥ 77.9 µM
Kd [3, 21]: ≥ 76.9 µM
Kd [4, 21]: ≥ 78.9 µM
Kd [5, 21]: ≥ 47.1 µM
Kd [6, 21]: ≥ 53.1 µM

TWMDLLRALI
Kd [1, 14]: 0.128 µM
Kd [6, 14]: 0.0217 µM

VFGSVYTTMF
Kd [1, 14]: 1.17 µM
Kd [6, 14]: 0.0573 µM

VFGTAYGVLF
Kd [1, 22]: 0.0737 µM
Kd [6, 22]: 0.0344 µM

VHTWTEQYKF
Kd [1, 20]: 3.78 µM
Kd [6, 20]: 0.889 µM

VLCSSSPTI
Kd [1, 12]: 1.67 µM
Kd [4, 12]: ≥ 30.7 µM
Kd [6, 12]: 0.457 µM

VSVKMFDAY
Kd [1, 13]: 10.3 µM
Kd [2, 13]: 11.5 µM
Kd [3, 13]: 0.639 µM
Kd [4, 13]: 0.0766 µM
Kd [5, 13]: 0.102 µM
Kd [6, 13]: 10.5 µM

VVAIDYRHY
Kd [1, 13]: ≥ 77.6 µM
Kd [2, 13]: ≥ 22.1 µM
Kd [3, 13]: 0.0117 µM
Kd [4, 13]: 0.0647 µM
Kd [5, 13]: ≥ 52.6 µM
Kd [6, 13]: ≥ 77.8 µM

WIPYFGPAA
IC50 [9, 15]: 0.894 µM

YNIDKIKDV
IC50 ([9]; source organism: Vaccinia virus): 9.18 µM

YQRPFGGQS
Kd [11]: 3.71 µM

YTGNYQCGHY
Kd [1, 13]: ≥ 70.3 µM
Kd [2, 13]: 0.128 µM
Kd [3, 13]: 0.00115 µM
Kd [4, 13]: 0.0225 µM
Kd [5, 13]: 0.00338 µM
Kd [6, 13]: ≥ 70 µM

YYQLESTQI
Kd [1, 13]: 0.0077 µM
Kd [2, 13]: ≥ 77.9 µM
Kd [3, 13]: ≥ 81.1 µM
Kd [4, 13]: 0.247 µM
Kd [5, 13]: ≥ 52.8 µM
Kd [6, 13]: 0.126 µM

Reference: the Immune Epitope Database (IEDB)
